8 molecules from PMC11021425, “Salmonella manipulates macrophage migration via SteC-mediated myosin light chain activation to penetrate the gut-vascular barrier” (The EMBO Journal, 2024) can be followed below.

The target of series [1] is T1, SteC FL (full-length SteC) (Salmonella enterica, UniProt D0ZIB5).
T1 construct: full-length (457 aa), expressed in E. coli BL21(DE3) from pGL01, Ni-NTA, His-tag removed by PPase, Superdex 200; dimeric catalysis inferred from the kinase domain structure
As to the kind of experiment: Phos-tag gel kinase assay. It is filed as biochemical. The settings on record: phosphate donor, 100 μM; acceptor murine Myl12a; 10 mM MgCl2/MnCl2, pH 7.5, 30 °C.

Series [2] addresses Myl12a, biotinylated (UniProt Q6ZWQ9). Nature of the series: BLI. In general terms: BLI is a label-free optical method that tracks binding on a fibre tip over time.
Series [3] addresses Myl12a, biotinylated (murine) (UniProt Q6ZWQ9). As to the kind of experiment: BLI.
Series [4] concerns Nc1nc2c(ncn2[C@@H]2O[C@H](COP(=O)(O)OP(=O)(O)OP(=O)(O)O)[C@@H](O)[C@H]2O)c(=O)[nH]1. Nature of the series: purified protein. The settings on record: phosphate donor, acceptor murine Myl12a, 10 mM MnCl2, 25 mM Tris-HCl pH 7.5, 1 mM DTT, 30 °C, 30 min.
Series [5] deals with O=c1ccn([C@@H]2O[C@H](COP(=O)(O)OP(=O)(O)OP(=O)(O)O)[C@@H](O)[C@H]2O)c(=O)[nH]1. Nature of the series: purified protein. As to conditions: phosphate donor, acceptor murine Myl12a, 10 mM MnCl2, 25 mM Tris-HCl pH 7.5, 1 mM DTT, 30 °C, 30 min.
Series [6] has as its target T2, Myl12a, biotinylated (murine, UniProt Q6ZWQ9 1-172, biotin (EZ-Link biotin, MCR = 1:1)).
T2 chain: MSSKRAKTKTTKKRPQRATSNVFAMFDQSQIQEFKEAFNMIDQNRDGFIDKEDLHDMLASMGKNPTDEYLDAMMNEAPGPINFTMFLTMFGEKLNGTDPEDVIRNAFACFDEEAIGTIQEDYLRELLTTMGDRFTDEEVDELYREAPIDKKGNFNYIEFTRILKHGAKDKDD
Nature of the series: BLI.

T1 sequence (D0ZIB5 whole entry, the tested form may be a part): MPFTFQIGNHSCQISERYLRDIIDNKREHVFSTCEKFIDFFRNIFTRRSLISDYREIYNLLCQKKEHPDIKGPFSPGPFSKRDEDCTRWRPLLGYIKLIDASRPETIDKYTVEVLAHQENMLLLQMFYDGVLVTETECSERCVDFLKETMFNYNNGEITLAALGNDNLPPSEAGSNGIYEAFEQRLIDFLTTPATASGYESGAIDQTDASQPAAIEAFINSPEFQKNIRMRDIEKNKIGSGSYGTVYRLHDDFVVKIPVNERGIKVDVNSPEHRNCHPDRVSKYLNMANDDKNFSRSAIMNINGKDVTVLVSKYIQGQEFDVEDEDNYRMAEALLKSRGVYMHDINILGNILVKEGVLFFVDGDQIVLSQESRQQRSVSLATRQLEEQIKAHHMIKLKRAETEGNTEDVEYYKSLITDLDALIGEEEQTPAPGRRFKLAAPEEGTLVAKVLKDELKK

On to `Nc1ccn([C@@H]2O[C@H](COP(=O)(O)OP(=O)(O)OP(=O)(O)O)[C@@H](O)[C@H]2O)c(=O)n1` [CTP], for which the “Phos-tag gel kinase assay” value in series [1] is “SteC can employ all four nucleotides (ATP, CTP, UTP, and GTP) for phosphorylation”.
In the case of Native SteC mut4, in the series with Myl12a, biotinylated [2], the Kd (commonly the free concentration of one partner at which half of the binding sites on the other are occupied at equilibrium, for simple one-to-one binding) was found to be 1110 nM.
In series [3], “SteC full-length protein (natural protein)” gave a Kd of 1340 nM.
“SteC-C (194 aa–457 aa) (domain or fragment)”: the Kd in series [3] stood at 23300 nM.
Regarding “SteC FL (full-length SteC) (Salmonella enterica subsp. enterica serovar Typhimurium str. 14028S)”, the Km (as a rule, the concentration of substrate that gives half-maximal velocity) in series [4] came to 5.84 µM; in series [5], 5.53 µM.
Native SteC mut1 displayed a dissociation constant Kd in the series with Myl12a, biotinylated [2] of 1090 nM.

B1: SteC 194 aa–364 aa (domain or fragment)
chain: ATASGYESGAIDQTDASQPAAIEAFINSPEFQKNIRMRDIEKNKIGSGSYGTVYRLHDDFVVKIPVNERGIKVDVNSPEHRNCHPDRVSKYLNMANDDKNFSRSAIMNINGKDVTVLVSKYIQGQEFDVEDEDNYRMAEALLKSRGVYMHDINILGNILVKEGVLFFVDGD
B1 showed a Kd with Myl12a, biotinylated [6] of 8830 nM. In other words, the single-digit micromolar range.

B2: SteC 168 aa–364 aa fragment (domain or fragment)
chain: LPPSEAGSNGIYEAFEQRLIDFLTTPATASGYESGAIDQTDASQPAAIEAFINSPEFQKNIRMRDIEKNKIGSGSYGTVYRLHDDFVVKIPVNERGIKVDVNSPEHRNCHPDRVSKYLNMANDDKNFSRSAIMNINGKDVTVLVSKYIQGQEFDVEDEDNYRMAEALLKSRGVYMHDINILGNILVKEGVLFFVDGD
With B2, the Kd in the series with Myl12a, biotinylated [6] was 710 nM.
